Laboratory results reported in patent publication US20090291088A1, “THERAPEUTIC COMBINATIONS OF ANTI-IGF-1R ANTIBODIES AND OTHER COMPOUNDS” (Biogen Idec MA Inc., priority 2008, published 2009).

How the values were obtained:
[1] = target: human IGF-1R(1-903)-Fc (human) (UniProt P08069); experiment: ELISA on hIGF-1R-Fc, competitor Zenon-labelled αIR3
[2] = target: human IGF-1R(1-903)-Fc (human) (UniProt P08069); experiment: ELISA on hIGF-1R-Fc, competitor biotinylated M14-G11
[3] = target: human IGF-1R(1-902)-His10 (human) (UniProt P08069); experiment: ELISA, plate coated with rh-IGF-1R, bound antibody detected with anti-mouse IgG Fc-HRP
[4] = target: human IGF-1R(1-903)-Fc (human) (UniProt P08069); experiment: competition ELISA: biotinylated hIGF-1R-Fc on streptavidin plate, 320 nM human IGF-1 His, detection with anti-His-HRP; blocked ligand human IGF-1 His

percent competition (relative to self-competition) [1]: 90 to 100%
percent competition (relative to self-competition) [2]: 90 to 100%
EC50 (read off the curve) [3]: 0.2 nM
IC50 (read off the curve) [4]: 5 nM
Substance: αIR3 (antibody)
